Experimental findings from PMC5552852, “Structural basis for Ccd1 auto-inhibition in the Wnt pathway through homomerization of the DIX domain” (Scientific Reports, 2017) are described below.

The labels stand for the following.
B1: zebrafish Coiled-coil-DIX1 (zCcd1) DIX domain [zebrafish] / itself (parent)
chain: AAASTKVLYYTDRSLTPFLVNIPKRLGDVTLQDFKAAVDRHGSFRYHFKSLDPEFGTVKEEVFQDDAVIPGWEGKIVAWVEED

In this test the parent is B1. The test is described as follows: gel filtration. The following applies: with itself; read off a plot. (In general: Size exclusion chromatography separates by hydrodynamic size, large species first.)
As for AAASTKVLYFTDRSLTPFLVNIPKRLGDVTLQDFKAAVDRHGSFRYHFKSLDPEFGTVKEEVFQDDAVIPGWEGKIVAWVEED [chain 1 Y10F], the screen value came to 80 mL.
